# Results published in US20100311648A1.
# How the values were obtained:
# [1] = target: human melanocortin-4 receptor (human) (UniProt P32245); experiment: cell-based or functional assay
# [2] = target: human melanocortin-4 receptor (human) (UniProt P32245); experiment: [I125]-NDP-α-MSH competition, hMC4-R HEK-293 membranes
# [3] = target: melanocortin-1 receptor (mouse (B-16 melanoma cells); in some instances human (hMC1-R)) (UniProt Q01727); experiment: [I125]-NDP-α-MSH competition, MC1-R membranes
# melanocortin-1 receptor (mouse (B-16 melanoma cells); in some instances human (hMC1-R)), sequence (Q01727 whole entry): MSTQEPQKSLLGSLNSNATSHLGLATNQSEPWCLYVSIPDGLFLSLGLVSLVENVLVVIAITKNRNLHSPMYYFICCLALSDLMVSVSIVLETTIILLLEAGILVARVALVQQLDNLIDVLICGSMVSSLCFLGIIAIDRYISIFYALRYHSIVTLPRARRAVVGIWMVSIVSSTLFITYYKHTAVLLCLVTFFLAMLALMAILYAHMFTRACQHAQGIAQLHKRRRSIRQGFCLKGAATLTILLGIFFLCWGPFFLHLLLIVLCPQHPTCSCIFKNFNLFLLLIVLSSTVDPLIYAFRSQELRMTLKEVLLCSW
# human melanocortin-4 receptor (human), sequence (P32245 whole entry): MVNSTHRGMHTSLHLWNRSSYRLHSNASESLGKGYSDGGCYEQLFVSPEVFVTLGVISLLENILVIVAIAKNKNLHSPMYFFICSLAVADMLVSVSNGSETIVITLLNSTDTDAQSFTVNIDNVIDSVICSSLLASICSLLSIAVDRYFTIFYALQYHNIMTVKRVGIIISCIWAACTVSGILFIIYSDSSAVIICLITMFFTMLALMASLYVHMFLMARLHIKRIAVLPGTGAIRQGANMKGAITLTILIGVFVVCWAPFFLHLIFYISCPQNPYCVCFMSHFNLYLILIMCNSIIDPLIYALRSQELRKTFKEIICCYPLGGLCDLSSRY
Substance,"EC50, cAMP, 10 ng/mL Doxycycline [1] [pM]","Intrinsic Activity, cAMP, 0.1 ng/mL Doxycycline [1] [%]","Intrinsic Activity, cAMP, 10 ng/mL Doxycycline [1] [%]",Ki [2] [pM],"EC50, cAMP, 0.1 ng/mL Doxycycline [1] [pM]",Ki [3] [pM]
"Ac-Arg-cyclo(Glu-Dab-D-Phe(2,4-diMe)-Arg-Trp-Orn)-NH2 (peptide)",500,8,97,85,,
Ac-Arg-cyclo(Glu-Dab-D-Phe(2-CF3)-Arg-Trp-Orn)-NH2 (peptide),60,85,96,600,125,
Ac-Arg-cyclo(Glu-Dab-D-Phe(2-CN)-Arg-Trp-Orn)-NH2 (peptide),500,64,97,45000,34000,
Ac-Arg-cyclo(Glu-Dab-D-Phe(2-Cl)-Arg-Trp-Orn)-NH2 (peptide),45,91,96,,340,1000
Ac-Arg-cyclo(Glu-Dab-D-Phe(2-Me)-Arg-Trp-Orn)-NH2 (peptide),85,83,97,500,140,
Ac-Arg-cyclo(Glu-Dab-D-Phe(2-NO2)-Arg-Trp-Orn)-NH2 (peptide),200,78,93,11000,,
"Ac-Arg-cyclo(Glu-Dab-D-Phe(3,4,5-triF)-Arg-Trp-Orn)-NH2 (peptide)",330,37,97,667,700,
"Ac-Arg-cyclo(Glu-Dab-D-Phe(3,4-diF)-Arg-Trp-Orn)-NH2 (peptide)",120,74,90,300,125,
"Ac-Arg-cyclo(Glu-Dab-D-Phe(3,4-diOMe)-Arg-Trp-Orn)-NH2 (peptide)",2000,23,94,,75000,
"Ac-Arg-cyclo(Glu-Dab-D-Phe(3,5-diF)-Arg-Trp-Orn)-NH2 (peptide)",120,64,95,2000,950,
Ac-Arg-cyclo(Glu-Dab-D-Phe(3-Cl)-Arg-Trp-Orn)-NH2 (peptide),95,36,99,,560,1000
Ac-Arg-cyclo(Glu-Dab-D-Phe(3-Me)-Arg-Trp-Orn)-NH2 (peptide),220,35,97,400,420,
Ac-Arg-cyclo(Glu-Dab-D-Phe(3-NO2)-Arg-Trp-Orn)-NH2 (peptide),550,17,95,700,2000,
Ac-Arg-cyclo(Glu-Dab-D-Phe(3-OMe)-Arg-Trp-Orn)-NH2 (peptide),65,64,100,,1000,
Ac-Arg-cyclo(Glu-Dab-D-Phe(4-CF3)-Arg-Trp-Orn)-NH2 (peptide),,0.5,53,60,,
Ac-Arg-cyclo(Glu-Dab-D-Phe(4-Me)-Arg-Trp-Orn)-NH2 (peptide),200,16,90,145,165,
Ac-Arg-cyclo(Glu-Dab-D-Phe(4-NH2)-Arg-Trp-Orn)-NH2 (peptide),600,35,94,48000,29000,
Ac-Arg-cyclo(Glu-Dab-D-Phe(4-NO2)-Arg-Trp-Orn)-NH2 (peptide),450,15,99,450,700,
Ac-Arg-cyclo(Glu-Dab-D-Phe(4-Ph)-Arg-Trp-Orn)-NH2 (peptide),800,14,100,500,,
Ac-Arg-cyclo(Glu-Dab-D-Phe(4-tBu)-Arg-Trp-Orn)-NH2 (peptide),,2,9,4000,,
Ac-Arg-cyclo(Glu-Dab-D-Tyr-Arg-Trp-Orn)-NH2 (peptide),550,71,87,75000,48000,
Ac-Arg-cyclo(Glu-Dap-D-Phe(2-Cl)-Arg-Trp-Orn)-NH2 (peptide),470,23,84,9000,16000,
Ac-Arg-cyclo(Glu-Dap-D-Phe(3-Cl)-Arg-Trp-Orn)-NH2 (peptide),950,6,89,4000,,
Ac-Arg-cyclo(Glu-Hyp-D-Phe(2-F)-Arg-Trp-Orn)-NH2 (peptide),80,57,90,,1000,53000
Ac-Arg-cyclo(Glu-Orn-D-Phe(3-Cl)-Arg-Trp-Orn)-NH2 (peptide),140,36,93,1000,950,
Ac-Arg-cyclo(Glu-Phe(3-C(═O)-NH2)-D-Phe(2-Cl)-D-Phe-Arg-Trp-Orn)-NH2 (peptide),4000,6,93,,,545000
Ac-Arg-cyclo(Glu-Ser(Bzl)-D-Phe(2-Cl)-Arg-Trp-Orn)-NH2 (peptide),373,36,100,300,310,
Ac-D-Arg-cyclo(Orn-His-D-Phe(2-F)-Arg-Trp-Glu)-NH2 (peptide),130,86,90,950,130,
